Usually Hill coefficient stands for the slope factor of the fitted curve. Broadly, the Km is the substrate concentration at which the rate is half of its maximum. Usually kcat stands for the maximal rate divided by the concentration of active sites. As usually defined, the Vmax is the rate approached at saturating substrate. As usually defined, the Kd is a measure of binding affinity in units of concentration. A low value points to higher affinity.

For series [1], the system named is Abz-GGFLRKHGQ-EDDnp. Briefly: Enzyme activity assay, kinetics of IDE and ATP binding site mutants with fluorogenic substrate. It is filed as biochemical. To be noted: rat IDE, Abz-GGFLRKHGQ-EDDnp as substrate. Here is the method:
Reactions were conducted in 50 mM Tris-HCl, pH 7.4.
IDE activity was determined by measuring the increase in fluorescence that occurs when the enzyme cleaves the internally quenched fluorogenic substrate Abz-[…]-EDDnp (SEQ ID NO:3) at the R—K bond (Song et al., Journal of Biologial Chemistry 276, 1152-1155 (2001)). The reaction was followed on a SpectraMax Gemini XS fluorescence plate reader using an excitation and emission wavelengths of 318 nm and 419 nm, respectively. Initial velocities were determined using SoftMax Pro 4.0 and kinetic constants calculated using GraphPad Prism 4.0. ATPase activity was measured by following Pi release with acid-molybdate as described by Harder et al. (Harder et al., Biochemical Journal 298 (Pt 2), 395-401 (1994)).

Series [2] in a line: Fluorescence measurements of TNP-ATP binding, wild type rIDE and distal site mutants. To be noted: hyperbolic one site binding fit, 20 °C. The method, then:
The fluorescence increase on binding of (2,4,6-trinitrophenyl)ATP (TNP-ATP) is plotted for the indicated IDE constructs as a function of ligand concentration. Data were fit to a hyperbolic one site binding mechanism.
Fluorescence emission spectra of 10 μM TNP-ATP in […] Tris-HCl, pH7.4, was measured in the presence of 1.5 μM of each wild type IDE and the indicated IDE distal mutants. Fluorescence spectra were recorded with a λexc=403 nm on a Perkin-Elmer LS55 Luminescence Spectrometer.
Fluorescence measurements of TNP-ATP binding were performed on a Perkin-Elmer LS55 Luminescence Spectrometer. Titrations were monitored at an excitation wavelength of 403 nm and emission wavelength of 547 nm. The temperature of the sample was maintained at 20±0.1° C. by circulating thermostatically controlled water through the cuvette holder. Assays were conducted in 200 μL reaction mixtures containing 50 mM Tris-HCl, pH, 7.4, 10 μM Abz-[…]-EDDnp (SEQ ID NO:3) as substrate, and 0.5 μg wild type rIDE, 2.3 μg rIDE-V3605, 2.0 μg rIDE-I3745 or 1.62 μg rIDEY609F and the indicated concentration of ATP. The fluorescence of TNP-ATP was subtracted from the total fluorescence of enzyme+TNP-ATP to yield specific fluorescence enhancement (ΔF).

Series [3] addresses T1, Abz-GGFLRKHGQ-EDDnp (Rattus norvegicus, UniProt P35559).
T1 construct: begin at methionine 42, which is believed to be the in vivo start site, and extend through the native C-terminal residue leucine 1019; hexahistidine with linker holding a TEV protease site (N, cleaved yes); made in house; host or cells: SF9 insect cells (baculovirus, pFastBac HTb)
T1 sequence (P35559 42-1019): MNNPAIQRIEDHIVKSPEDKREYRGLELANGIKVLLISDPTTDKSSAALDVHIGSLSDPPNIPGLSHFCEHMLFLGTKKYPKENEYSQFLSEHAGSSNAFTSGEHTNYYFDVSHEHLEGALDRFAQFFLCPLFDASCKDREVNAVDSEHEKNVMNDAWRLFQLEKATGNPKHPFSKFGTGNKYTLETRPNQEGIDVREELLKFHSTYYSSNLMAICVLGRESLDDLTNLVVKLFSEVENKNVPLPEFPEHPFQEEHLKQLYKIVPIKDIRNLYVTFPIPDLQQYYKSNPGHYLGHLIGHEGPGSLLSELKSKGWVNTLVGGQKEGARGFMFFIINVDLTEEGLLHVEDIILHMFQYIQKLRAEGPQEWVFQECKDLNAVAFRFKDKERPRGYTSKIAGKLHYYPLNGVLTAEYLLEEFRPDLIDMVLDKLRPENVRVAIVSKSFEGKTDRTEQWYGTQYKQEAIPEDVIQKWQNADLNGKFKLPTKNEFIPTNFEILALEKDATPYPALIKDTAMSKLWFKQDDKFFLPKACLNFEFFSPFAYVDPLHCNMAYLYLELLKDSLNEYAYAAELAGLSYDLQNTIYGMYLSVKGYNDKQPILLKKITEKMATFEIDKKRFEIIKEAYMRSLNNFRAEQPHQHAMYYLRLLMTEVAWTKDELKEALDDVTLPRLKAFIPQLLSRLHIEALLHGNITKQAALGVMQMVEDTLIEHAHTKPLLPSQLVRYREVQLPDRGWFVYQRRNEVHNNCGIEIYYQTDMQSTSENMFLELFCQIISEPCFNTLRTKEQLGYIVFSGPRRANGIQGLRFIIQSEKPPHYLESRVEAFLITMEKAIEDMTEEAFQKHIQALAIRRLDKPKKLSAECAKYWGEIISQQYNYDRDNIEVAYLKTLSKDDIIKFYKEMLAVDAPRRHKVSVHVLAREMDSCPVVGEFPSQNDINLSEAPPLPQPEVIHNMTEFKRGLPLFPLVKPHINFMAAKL
The experiment in a line: Activation by bradykinin, wild type rIDE and distal site mutants. It is filed as biochemical. The note with it: 10 μM Abz-GGFLRKHGQ-EDDnp as substrate. Here is the method: (§1) FIG. 17. Effects of distal site mutations. (A) Comparison of the kinetics of wild type IDE with the distal site mutants. Activity was measured with varying amounts of Abz-[…]-EDDnp (SEQ ID NO:3) substrate as indicated. Either hyperbolic (Michaelis-Menten equation) or sigmoidal curves (Hill equation) were fit to the data. (B) Effect of bradykinin on the activity of wild type IDE and the distal site mutants. (C) Activation of wild type IDE and distal site mutants by ATP. Relative activity is the fold activation above the level of the wild type enzyme alone.
The activity of IDE was measured by following the increase in fluorescence upon hydrolysis at the L-R bond of the fluorogenic peptide Abz-[…]-EDDnp (SEQ ID NO:3) on a SpectraMax Gemini XS fluorescence plate reader using an excitation wavelength of 318 nm and emission wavelength of 419 nm. Reactions were carried out in 200 μl volumes containing 50 mM Tris-HCl, pH 7.4, 1.92 μg of wild type rIDE, 4.6 μg of rIDE-V360S, 4.3 μg rIDE-I374S, or 1.63 μg of rIDE-Y609F. For measurements of activation by bradykinin, IDE activity was determined with 10 μM Abz-[…]-EDDnp (SEQ ID NO:3) as substrate in 50 mM Tris-HCl buffer, pH 7.4. The amount of protein was 0.5 μg for wild type rIDE and 5 μg for each of the IDE distal-site mutants. Data were analyzed using Softmax 4.0 (Molecular Devices) and kinetic parameters calculated with Prism (Graphpad Software). […]

Series [4] has as its system Abz-GGFLRKHGQ-EDDnp. Briefly: Enzyme activity assay, kinetics of wild type rIDE and distal site mutants with fluorogenic substrate. Type of series: biochemical. Here is the method:
as §1
The activity of IDE was measured by following the increase in fluorescence upon hydrolysis at the L-R bond of the fluorogenic peptide Abz-[…]-EDDnp (SEQ ID NO:3) on a SpectraMax Gemini XS fluorescence plate reader using an excitation wavelength of 318 nm and emission wavelength of 419 nm. Reactions were carried out in 200 μl volumes containing 50 mM Tris-HCl, pH 7.4, 1.92 μg of wild type rIDE, 4.6 μg of rIDE-V360S, 4.3 μg rIDE-I374S, or 1.63 μg of rIDE-Y609F. For measurements of activation by bradykinin, IDE activity was determined with 10 μM Abz-[…]-EDDnp (SEQ ID NO:3) as substrate in 50 mM Tris-HCl buffer, pH 7.4. The amount of protein was 0.5 μg for wild type rIDE and 5 μg for each of the IDE distal-site mutants. Data were analyzed using Softmax 4.0 (Molecular Devices) and kinetic parameters calculated with Prism (Graphpad Software). […] Under these assay conditions, both wild type and mutant rIDE are almost completely dimeric.

B1: IDE: Native rat insulin degrading enzyme (SEQ ID NO:1), expressed as hexahistidine fusion protein in Sf9 insect cells (protein, listed as Rattus norvegicus)
chain: MRNGLVWLLHPALPSTLHSILGARPPPVKRLCGFPKQIYSTMNNPAIQRIEDHIVKSPEDKREYRGLELANGIKVLLISDPTTDKSSAALDVHIGSLSDPPNIPGLSHFCEHMLFLGTKKYPKENEYSQFLSEHAGSSNAFTSGEHTNYYFDVSHEHLEGALDRFAQFFLCPLFDASCKDREVNAVDSEHEKNVMNDAWRLFQLEKATGNPKHPFSKFGTGNKYTLETRPNQEGIDVREELLKFHSTYYSSNLMAICVLGRESLDDLTNLVVKLFSEVENKNVPLPEFPEHPFQEEHLKQLYKIVPIKDIRNLYVTFPIPDLQQYYKSNPGHYLGHLIGHEGPGSLLSELKSKGWVNTLVGGQKEGARGFMFFIINVDLTEEGLLHVEDIILHMFQYIQKLRAEGPQEWVFQECKDLNAVAFRFKDKERPRGYTSKIAGKLHYYPLNGVLTAEYLLEEFRPDLIDMVLDKLRPENVRVAIVSKSFEGKTDRTEQWYGTQYKQEAIPEDVIQKWQNADLNGKFKLPTKNEFIPTNFEILALEKDATPYPALIKDTAMSKLWFKQDDKFFLPKACLNFEFFSPFAYVDPLHCNMAYLYLELLKDSLNEYAYAAELAGLSYDLQNTIYGMYLSVKGYNDKQPILLKKITEKMATFEIDKKRFEIIKEAYMRSLNNFRAEQPHQHAMYYLRLLMTEVAWTKDELKEALDDVTLPRLKAFIPQLLSRLHIEALLHGNITKQAALGVMQMVEDTLIEHAHTKPLLPSQLVRYREVQLPDRGWFVYQRRNEVHNNCGIEIYYQTDMQSTSENMFLELFCQIISEPCFNTLRTKEQLGYIVFSGPRRANGIQGLRFIIQSEKPPHYLESRVEAFLITMEKAIEDMTEEAFQKHIQALAIRRLDKPKKLSAECAKYWGEIISQQYNYDRDNIEVAYLKTLSKDDIIKFYKEMLAVDAPRRHKVSVHVLAREMDSCPVVGEFPSQNDINLSEAPPLPQPEVIHNMTEFKRGLPLFPLVKPHINFMAAKL
modifications: hexahistidine tag; wild-type Insulin Degrading Enzyme (IDE) from rat
For B1, the “Hill coefficient” value in the series with Abz-GGFLRKHGQ-EDDnp [1] is recorded as 2.1 ± 0.3; in the series with Abz-GGFLRKHGQ-EDDnp [4] (rat IDE, Abz-GGFLRKHGQ-EDDnp as substrate, listed as Wild Type) it was 1.8 ± 0.16; with Abz-GGFLRKHGQ-EDDnp [4] (rat IDE, Abz-GGFLRKHGQ-EDDnp as substrate, listed as wild type enzyme), 1.80. The Km came out at 9.6 ± 0.7 mM in the series with Abz-GGFLRKHGQ-EDDnp [1] and 0.0159 ± 0.00119 mM with Abz-GGFLRKHGQ-EDDnp [4] (rat IDE, Abz-GGFLRKHGQ-EDDnp as substrate). In addition, the kcat in the series on Abz-GGFLRKHGQ-EDDnp [1] amounted to 0.0867 ± 0.0033 s⁻¹. Besides, the Vmax in the series with Abz-GGFLRKHGQ-EDDnp [1] (50 mM Tris-HCl, pH 7.4) is on record as 47.2 ± 1.7 nmol/min/mg; in the series with Abz-GGFLRKHGQ-EDDnp [4] (rat IDE, Abz-GGFLRKHGQ-EDDnp as substrate, 50 mM Tris-HCl, pH 7.4) it was 35.5 ± 11.6 nmol/min/mg. The equilibrium dissociation constant (Kd) in series [2] turned out to be 1 ± 0.1 µM. Also, the “Heterotropic activation with bradykinin” value in the series with Abz-GGFLRKHGQ-EDDnp [3] is listed as “approximately 4 fold”. Besides, the Specific activity in the series on Abz-GGFLRKHGQ-EDDnp [4] (Abz-GGFLRKHGQ-EDDnp substrate) is reported as 8,131 nmol/min/mg.
